{"source": "the DeepSol protein solubility set"}
{"assay": "soluble on expression in E. coli; label from the status in PepcDB or PDB records"}
{"sequence": "NKDWSYRIGFNLYDSQSEITKYNNETNLLGDKIYRKGMKMGEIWGYVTDRFYTEDDFNADGTLKPGIPIPKGAGKVFPGDVLYKNFDDDTETIWSGEGTADNPGDQRIIGNSTPRFHYGITAGISWKGLDLSIFLRGVGKRDYWRTDQIAWPTGGWGSLFKETLNFWTPTNTNAYYPRVYSNDGVNTSYNHWKQSKYLANASYLKLQNITLSYTLPKVWSQRLYFDDVKVFFSGENLYTWDHLPEGLETDMLSKGAWEYPFMRKFSFGINVTF", "soluble on expression in E. coli": "not soluble"}
{"sequence": "SNAMHSDALSWGHGPRLFEVFLEPTCPFSVKAFFKLDDLLAQAGEDNVTVRIRLQSQPWHMFSGVIVRCILAAATLEGGKESAKAVMTAVASHREEFEFEHHAGGPNLDATPNDIIARIERYSGLALAEAFANPELEHAVKWHTKYARQNGIHVSPTFMINGLVQPGMSSGDPVSKWVSDIG", "soluble on expression in E. coli": "soluble"}
{"sequence": "MAHHHHHHMAPMSSSGIRGLSLRSVRETVHCATTQTTSAPPPPANCQQHQLLNTTEDKCNAIFAEVELLSKWLQHAVESRAHVEREAYALLQQADVKIQHLEDTVRQKEMELLYMRGAMESLRTRVEFYECRERRIEGDDDDANFPLRREADFKGAAVRKVVIMGENNTNDSYCSNRMGRGNGVMSPADFTVDSTEQLNAGKCVDLGTTATTCNSNGVDNASVSSPAETGVGGRSRVGHSALSWVRYLLERCVSNSGKDGASEGAASMKKKGEGNDQLADALTMLTTLQCQYADPNGDLVMMNSLCTKFSNSIVAVAEELNTALQIPLKRASNTTDSLQISQAAKVVEHPESAAEALPSSNQEPIMQCRKSVVEENLQLLQSLMAVESSSREAWSTLQKY", "soluble on expression in E. coli": "not soluble"}
{"sequence": "DISEELDYERGRYLDAMIDNHKYTGKARAIIYGQPELALALAKVCFENGVNVKLIALGAKNKILEEALKEEIKSQREEVLVLDDTDFDTIEKYAKEFNVNLFIGNSDGRRMASRLGIEIIRVGFPIHDRV", "soluble on expression in E. coli": "not soluble"}
{"sequence": "MGSDKIHHHHHHMSKTKEQVVELAQKHGITIQEGSLILNESGLDFQVVFALDVNGKRWVLRLPRREDVVPSTAKEKKTLELIAPHLSVQVPNWEVYSVEMIAYKQLKGVPAATIDHGKKAYVWEMDHTNVSDRFIDTLASGMASLHQIKQDEARRAGVPAEQATEARERMSVRMEKVKSEFGVSEPLWARWQKWLHHDALWPAETGLVHGDLHAGHILIGEQTEVTGFIDWTEAQVTDLSEDFVPHYRIFGEAALNRLIAAYEEAGGYVWPSMKEHVIEREAAFPVAIAEFALKSGIGEYKRMAKEVLGVAE", "soluble on expression in E. coli": "not soluble"}
{"sequence": "MREAMYWKPLGDGRVRCELCPLRCIIDEGKRGSCKIRINKGGKLYTLNYGKVSSIALDPIEKKPLFHFWPGSCALSIGTVGCNMHCKHCQNWEISQADESFPYLQDATPEAIVSLAKHYECESIAYTYNEPTIWYEFVLDTAKLARKEGLNNILVTNGYINEEPFRELAPYIDAMNIDIKAFDDKFYMKIASVPSGEPSRRIAEIAKKEFKIHVELTYLIIPTLNDKEEEIREFARWVVENLGDDTPVHFSRFFPHYKLLNLPPTPIETLEKAYKIAKEEGLKFVYLGNVPGHPGENTYCPSCGKLLIERWGFDIIRYDIVDGKCKYCGEKIPIVGKYQKKKYRGMWW", "soluble on expression in E. coli": "soluble"}
{"sequence": "MGISRDSWHKRYKTGATQPVPHKKRKFELGRPAANTKIGAHRVRLVRTRGGNEKYRALRLDSGNFSWASEQTTRKTRIVDTMYNATNNELVRTKTLVKGAIISVDAAPFRQWYEAHYALPLARKKNAKLSEEDNAILNKKRSHHTMKKYTERQKTAAVDALLIEQFNTGRLLARISSSPGQVGQANGYILEGKELDFYLRKIRAKKAK", "soluble on expression in E. coli": "not soluble"}
{"sequence": "MNFFKRKFSFSEDEGEPMDDVNSGPPSSFSFQSIANKVSNTISAPTSPAKSRESLAAALERSLNHDRSRGEPLMKDAKVLLVIDSHHVDWSKYFRNHTEYAIRVEQGDIDELDVMCTEKNCTVELNTPGKDVRTFTPSAVFLGAGATRCAQLKTITRAFIAAHIPFLNSHTSAVAFLDRNNLKKQLKKITLSDGASIPMLPIVHYPHFHKFHQSQSSTYPMVVSVNEGFQGIGKIKVNNHEELCDVEGMLQIMSKGDTEVEVQPFVDAKYDLHIQKIGHEYKTFIRRGICKHWKSNVGSSVLEQISTCERHKKYLKAITDHVGPMHICSIDILVSKEGREFVHDVNDVIAYFGESAEDDRRAASLLLRALVAPRITSPIAAEPPATSPTTSAVTNGHGNHGPAPAVPTRRLPPHPSSSSAAPPRGHMSDKVESRHKDHYDPPPQIPRTGSRESVSYVDDTMGQLKRTFAGFFGE", "soluble on expression in E. coli": "not soluble"}
{"sequence": "MKKMFLILASAVVSLTACSKDSGDDDSPPIEKQPFNAVIKDGFKDENGVDLLPPRNIGNIKVGDYIPYNVTITDEVAEQEGETYRVVASTYDEGTHQERSVSYDIYLADKEDPTKMVLLENPEQLTFNKRGTYSFFIYPKEAGTYNLRFLLEKSVNNQKIGTSAIPIVTFNAVRITAYSHGYFTGKWKWEWSDSFIPILEEHSVNRRKFFFKIDDGSTEKDKYLQPEKAGIFYFTEYNGDNRGPLSFTVGAEYEYYPEQERTRAIQYLIFLLLK", "soluble on expression in E. coli": "not soluble"}
{"sequence": "MGSDKIHHHHHHMPSIFEKYQLKQVINASGRMTALGVSTPRPEVIDAAMAGMNQYFEMKDLVNKTGEYIAKLLEVEGATVVSCASAGLAQSVAAVLVQDSDWLLENLHVTPIENNEIVLPKGHNVNFGAPVGTMVALGGGKLVEAGYANECSAAQLAAAITPRTAAILYIKSHHCVQKSMLSVEQAAVVARTHNLPLIVDAAAEEDLQCYYRVGADLVIYSGAKAIEGPTSGLVIGKTQYVEWVKRQSAGIGRAMKVGKEGIVGLTCAIELYLRAQKESGAEMVEKMAPFIDTLNTFNGVSARVVWDSAGRDIARTEIKFDEAVTGIATGELVDALKQGEYAIYFRGYKANEGIIEADVRSVDRAQLAIVARRIGEVINQEKQA", "soluble on expression in E. coli": "not soluble"}
{"sequence": "MGSDKIHHHHHHMAYRNGTYVAFHANGTNRPGGNSDIDYYNLLKAWVGKDDDHFTMNNSHDKASAVRDSSKKETLRASLLERLRNSKNMVLIIGDTTLLDDDWVPFEISSAVDTYEIPIIAVYTQYSTPIRNPAALRSRWPDALATRIDSQKAKVIHIPFKKAALNDAISQFSHNNMPKGPLSFYSDEAYESFGIDG", "soluble on expression in E. coli": "not soluble"}
{"sequence": "MGSDKIHHHHHHMAAGHGVRPARVAISLYPGCAQLYLQAQRAGKAVEALETPEAHFSVLESISLEEQMLILRSVLKRSQEQREKDFELMIQAYLSGNLDKVGALDSALGVDGLPAGLWEKIRVKLLDERNMRMAERIAAAASLQPVFVAVGAAHLPGEGGLIDLLSRAGLPYLPSIASDARRRLTFMPHLPLTHARYNSSYFRRMDGLTMADRINLRPLERNDLHFVHKLNNNDTIMRYWFEEPYEAYDELVALYDRHIHDQNERRFIIELDNGELAGLVELVEINYIHRRAEFQIIIAPDYQGRGLAKSATRIAVGYAFRVLNLHKVYLVVDKENQAAIHVYEACGFEVEGRLKEEFFSNGSYRDVLRMRLLQDDYLRHVGPAPVDASVLREWQDQ", "soluble on expression in E. coli": "not soluble"}
{"sequence": "MAEKPHMNLVVIGHVDHGKSTLVGHLLYRLGYIEEKKLKELEEQAKSRGKESFKFAWILDKMKEERERGITIDLTFMKFETKKYVFTIIDAPGHRDFVKNMITGASQADAAILVVSARKGEFEAGMSTEGQTREHLLLARTMGIEQIIVAVNKMDAPDVNYDQKRYEFVVSVLKKFMKGLGYQVDKIPFIPVSAWKGDNLIERSPNMPWYNGPTLVEALDQLQPPAKPVDKPLRIPVQNVYSIPGAGTVPVGRVETGVLRVGDKVVFMPPGVVGEVRSIEMHYQQLQQAEPGDNIGFAVRGVSKSDIKRGDVAGHLDKPPTVAEEFEARIFVIWHPSAITVGYTPVIHVHTASVSSRIIEIKAKLDPKTGQVVEQNPQFLKAGDAAIVRFKPVKPLVVEKFSEIPQLGRFAMRDMNRTVGIGIVTDVKPAKVDIKAK", "soluble on expression in E. coli": "soluble"}
{"sequence": "MSNEDSLPPFTLFGLDDVENYGLVTEADNSLPLDIHNQVFQLVEKGNQSFKESRFEEAISSYSKANSIKPLDPIVLGNRSAAYIRFGQYLKQRSASISEYKPLNGFDMSMLGELALKDADKLMSLQSSLVKSYITKACALMLLERYEVARDTILSGLQIDPFSGPLRSNLQELEKVMPNSMRKTHGMAERSDDFDCTVCLKLLYEPATTPCGHTFCRSCLFQSMDRGNKCPLCRTVIFMTPRTCAVSVTLNNIIEKNFPEEYAERKSEQDTLVHLGNESMPLFVMDVIIPCQKLSLHIFEPRYRLMVRRIMEGNHRMGMVALDSATGSPVDVACEVEITECDPLPDGRFVLELESHRRCRIVKAWDQDGYRVAEVEWVKDIPPQSEQGKADLRELTTSAASFARSWLDRAKEAARQGDRRRLEILLNVESMIPTPQDPERFSFWLATLTDRRPSERLELLRLQDTGEVLDYRLVQIARQISLFHQSLSFDC", "soluble on expression in E. coli": "not soluble"}
